Assay results published in US10702592B2, “Peptides and combination of peptides for use in immunotherapy against NHL and other cancers” (Immatics Biotechnologies GmbH, priority 2016, dated 2020).

These substances were tested against HLA-A*02:01 (Homo sapiens, UniProt P04439, D140Y/D185E/D98H/E176V/E277Q/G131W/G231S/I119V/I121R/I166T/I218V/L300P/L318F/N151K/N90K/P208A/P217A/Q86G/Q94H/R138H/R169H/T345S) (assay: MHC binding assay (UV-ligand exchange, beta2m ELISA)). Details: binding to HLA-A*02:01, UV-ligand exchange.
From the text: Candidate peptides for T cell based therapies according to the present invention were further tested for their MHC binding capacity (affinity). The individual peptide-MHC complexes were produced by UV-ligand exchange, where a UV-sensitive peptide is cleaved upon UV-irradiation, and exchanged with the peptide of interest as analyzed. Only peptide candidates that can effectively bind and stabilize the peptide-receptive MHC molecules prevent dissociation of the MHC complexes. To determine the yield of the exchange reaction, an ELISA was performed based on the detection of the light chain (β2m) of stabilized MHC complexes. The assay was performed as generally described in Rodenko et al. (Rodenko et al., 2006).
96 well MAXISorp plates (NUNC) were coated over night with 2 ug/ml streptavidin in PBS at room temperature, washed 4× and blocked for 1 h at 37° C. in 2% BSA containing blocking buffer. Refolded HLA-A*02:01/MLA-001 monomers served as standards, covering the range of 15-500 ng/ml. Peptide-MHC monomers of the UV-exchange reaction were diluted 100 fold in blocking buffer. Samples were incubated for 1 h at 37° C., washed four times, incubated with 2 ug/ml HRP conjugated anti-β2m for 1 h at 37° C., washed again and detected with TMB solution that is stopped with […]. Absorption was measured at 450 nm. Candidate peptides that show a high exchange yield (preferably higher than 50%, most preferred higher than 75%) are generally preferred for a generation and production of antibodies or fragments thereof, and/or T cell receptors or fragments thereof, as they show sufficient avidity to the MHC molecules and prevent dissociation of the MHC complexes.

Peptide exchange (MHC class I binding score, peptide exchange yield)	Substance
“+++” (≥50 = +++)	75 (AALKYIPSV; listed as Homo sapiens) [compound 75]
“++++” (≥75% = ++++)	76 (ALADLVPVDVVV; listed as Homo sapiens) [compound 76]
“++++” (≥75% = ++++)	77 (ALLDVSNNYGI; listed as Homo sapiens) [compound 77]
“+++” (≥50 = +++)	78 (AMEEAVAQV; listed as Homo sapiens) [compound 78]
“++” (≥20% = ++)	79 (AMKEEKEQL; listed as Homo sapiens) [compound 79]
“+++” (≥50 = +++)	80 (YLFDEIDQA; listed as Homo sapiens) [compound 80]
“++” (≥20% = ++)	81 (FIFSYITAV; listed as Homo sapiens) [compound 81]
“+++” (≥50 = +++)	82 (FLIDGSSSV; listed as Homo sapiens) [compound 82]
“+++” (≥50 = +++)	83 (FLMDDNMSNTL; listed as Homo sapiens) [compound 83]
“+++” (≥50 = +++)	84 (FLQELQLEHA; listed as Homo sapiens) [compound 84]
“+++” (≥50 = +++)	85 (GLAPAEVVVATVA; listed as Homo sapiens) [compound 85]
“+++” (≥50 = +++)	86 (GLATIRAYL; listed as Homo sapiens) [compound 86]
“++” (≥20% = ++)	87 (GLFARIIMI; listed as Homo sapiens) [compound 87]
“+++” (≥50 = +++)	88 (GLFDNRSGLPEA; listed as Homo sapiens) [compound 88]
“+++” (≥50 = +++)	89 (GLTALHVAV; listed as Homo sapiens) [compound 89]
“+++” (≥50 = +++)	90 (HLDEVFLEL; listed as Homo sapiens) [compound 90]
“++” (≥20% = ++)	91 (HLSSTTAQV; listed as Homo sapiens) [compound 91]

Peptide exchange (MHC class I binding score, peptide exchange yield)	Substance
“+++” (≥50 = +++)	92 (KLLFEIASA; listed as Homo sapiens) [compound 92]
“++++” (≥75% = ++++)	93 (KLLGSLQLL; listed as Homo sapiens) [compound 93]
“+++” (≥50 = +++)	94 (LLAGQATTAYF; listed as Homo sapiens) [compound 94]
“+++” (≥50 = +++)	95 (LLFDLIPVVSV; listed as Homo sapiens) [compound 95]
“+++” (≥50 = +++)	96 (LLLNENESLFL; listed as Homo sapiens) [compound 96]
“+” (≥10% = +)	97 (LLNFSPGNL; listed as Homo sapiens) [compound 97]
“+++” (≥50 = +++)	98 (MLQDGIARL; listed as Homo sapiens) [compound 98]
“++” (≥20% = ++)	99 (QLYDGATALFL; listed as Homo sapiens) [compound 99]
“+++” (≥50 = +++)	100 (RLIRTIAAI; listed as Homo sapiens) [compound 100]
“++++” (≥75% = ++++)	101 (SLDQSTWNV; listed as Homo sapiens) [compound 101]
“+++” (≥50 = +++)	102 (SLFAAISGMIL; listed as Homo sapiens) [compound 102]
“+++” (≥50 = +++)	103 (SLQDHLEKV; listed as Homo sapiens) [compound 103]
“+++” (≥50 = +++)	104 (VLLGLPLLV; listed as Homo sapiens) [compound 104]
“+++” (≥50 = +++)	105 (VLTPVILQV; listed as Homo sapiens) [compound 105]
“++++” (≥75% = ++++)	106 (VLYELLQYI; listed as Homo sapiens) [compound 106]
“+++” (≥50 = +++)	107 (VQAVSIPEV; listed as Homo sapiens) [compound 107]

Continued, substance first:

Substance	Peptide exchange (MHC class I binding score, peptide exchange yield)
4 (TLLGFFLAKV; listed as Homo sapiens) [compound 4]	“++” (≥20% = ++)
6 (TLITLPLLFL; listed as Homo sapiens) [compound 6]	“+++” (≥50 = +++)
10 (FLLVGTQIDL; listed as Homo sapiens) [compound 10]	“+++” (≥50 = +++)
11 (GLDTVVALL; listed as Homo sapiens) [compound 11]	“+++” (≥50 = +++)
14 (LLSDPTPGA; listed as Homo sapiens) [compound 14]	“++” (≥20% = ++)
15 (IIIEDLLEA; listed as Homo sapiens) [compound 15]	“++++” (≥75% = ++++)
16 (TLIAAILYL; listed as Homo sapiens) [compound 16]	“++” (≥20% = ++)
18 (KLTDQPPLV; listed as Homo sapiens) [compound 18]	“+++” (≥50 = +++)
23 (ALVEDIINL; listed as Homo sapiens) [compound 23]	“++++” (≥75% = ++++)
31 (KLYDEESLL; listed as Homo sapiens) [compound 31]	“++++” (≥75% = ++++)
32 (VLNEDELPSV; listed as Homo sapiens) [compound 32]	“+++” (≥50 = +++)
34 (LLWEDGVTEA; listed as Homo sapiens) [compound 34]	“+++” (≥50 = +++)
38 (YLTAEILELAGN; listed as Homo sapiens) [compound 38]	“++” (≥20% = ++)
39 (QLLPQGIVPAL; listed as Homo sapiens) [compound 39]	“+++” (≥50 = +++)
45 (FILDDSALYL; listed as Homo sapiens) [compound 45]	“+++” (≥50 = +++)
48 (KILDEDLYI; listed as Homo sapiens) [compound 48]	“+++” (≥50 = +++)
49 (TILGDPQILL; listed as Homo sapiens) [compound 49]	“++++” (≥75% = ++++)
50 (LLLDGLIYL; listed as Homo sapiens) [compound 50]	“+++” (≥50 = +++)
54 (DIFDAMFSV; listed as Homo sapiens) [compound 54]	“+” (≥10% = +)
55 (ILVEVDLVQA; listed as Homo sapiens) [compound 55]	“++++” (≥75% = ++++)
56 (GLQDLLFSL; listed as Homo sapiens) [compound 56]	“+++” (≥50 = +++)
58 (QLAPFLPQL; listed as Homo sapiens) [compound 58]	“+++” (≥50 = +++)
63 (ALIEEAYGL; listed as Homo sapiens) [compound 63]	“+++” (≥50 = +++)
64 (FLVEVSNDV; listed as Homo sapiens) [compound 64]	“++++” (≥75% = ++++)
65 (NLTDVSPDL; listed as Homo sapiens) [compound 65]	“+++” (≥50 = +++)
69 (TLLAFPLLL; listed as Homo sapiens) [compound 69]	“++++” (≥75% = ++++)
70 (VLIEILQKA; listed as Homo sapiens) [compound 70]	“++++” (≥75% = ++++)
71 (VLLDYVGNVQL; listed as Homo sapiens) [compound 71]	“++++” (≥75% = ++++)
72 (TLQEETAVYL; listed as Homo sapiens) [compound 72]	“++” (≥20% = ++)
